From US20200002405A1 (ADMINISTRATORS OF THE TULANE EDUCATIONAL FUND, published 2020) come the findings set out here.

A value given as a limit tells only on which side of the number the result lay.

T1: LASV Josiah (lineage IV) glycoprotein, full-length GP (Lassa virus, Josiah strain, UniProt P08669 2-491)
T1 sequence: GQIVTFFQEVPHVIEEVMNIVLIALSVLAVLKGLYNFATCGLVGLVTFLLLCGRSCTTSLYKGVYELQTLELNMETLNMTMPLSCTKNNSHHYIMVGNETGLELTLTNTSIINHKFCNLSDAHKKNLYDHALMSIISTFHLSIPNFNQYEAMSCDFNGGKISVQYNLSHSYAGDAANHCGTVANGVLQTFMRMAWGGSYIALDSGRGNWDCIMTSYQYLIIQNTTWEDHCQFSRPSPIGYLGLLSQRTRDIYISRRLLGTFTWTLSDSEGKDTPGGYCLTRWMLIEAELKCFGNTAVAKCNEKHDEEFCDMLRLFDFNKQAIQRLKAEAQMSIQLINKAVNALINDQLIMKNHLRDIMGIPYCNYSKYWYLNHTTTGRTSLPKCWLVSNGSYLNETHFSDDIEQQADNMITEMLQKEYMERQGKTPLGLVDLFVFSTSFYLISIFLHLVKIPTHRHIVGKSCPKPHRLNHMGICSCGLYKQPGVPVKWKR

T2: LCMV WE strain GP (LCMV, WE strain, UniProt P07399 2-498)
T2 construct: whole, on cells
T2 sequence: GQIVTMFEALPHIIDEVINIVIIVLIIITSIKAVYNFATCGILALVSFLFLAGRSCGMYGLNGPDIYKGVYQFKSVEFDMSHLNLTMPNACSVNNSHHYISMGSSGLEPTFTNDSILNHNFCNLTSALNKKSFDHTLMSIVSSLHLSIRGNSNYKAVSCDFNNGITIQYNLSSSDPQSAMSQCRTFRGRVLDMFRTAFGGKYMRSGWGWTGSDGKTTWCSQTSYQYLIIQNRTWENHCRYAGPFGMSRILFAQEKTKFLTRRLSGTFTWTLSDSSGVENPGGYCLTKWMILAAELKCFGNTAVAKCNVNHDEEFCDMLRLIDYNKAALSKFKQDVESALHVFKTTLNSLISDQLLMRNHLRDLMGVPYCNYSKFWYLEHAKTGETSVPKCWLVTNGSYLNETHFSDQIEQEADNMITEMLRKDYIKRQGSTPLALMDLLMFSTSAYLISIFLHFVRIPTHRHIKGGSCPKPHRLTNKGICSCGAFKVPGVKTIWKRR

B1: 8.11G (antibody, V domains shown)
VH: QVQLQESGPGLVKPSETLSLTCSISGVSTRNYYWSWIRQSPGKGLEWIGYIFNIGTTNYNPSLKSRLTISVDTSKNQFSLKITSVTAADTAVYYCASGFEYGDYTFDYWGQGTPVTVSS
VL: EIVLTQSPATLSVSPGGRASLSCRASQSIGDKLSWYQQKPGQAPRLVIYGAYTRATDISPRFSGSRSGTDFNLTISRMQSGDFAVYFCQQYENWPRTFGQGTKLEIKR
B2: 37.7H (antibody, V domains shown)
VH: EVQLVQSGGGLVKAGGSLRLSCAASGFTFSTYSMNWIRQAPGKGLEWVASISSRSGSHINYVDSVKGRFTISRDNARDLLYLQMNSLRVDDSALYYCARDRRSGTSPLPLDVWGQGTTVTVFS
VL: DQSALTQPASVSGSPGQSITISCTGTGSDIGGYNFVSWYQQYPGKAPKLIIYEVRIRASGVSNRFSGSKSGNTASLTISGLQAEDEADYYCNSYSIHSPWVFGGGTKLTVLR
B3: 37.2D (antibody, V domains shown)
VH: EVQLVQSGAEVKKPGASVKVSCKASGYTFTKYGISWVRQAPGQGLEWMGWISAFNGYTRYGQRFQGKVTMTTDTSTNTASLEVRTLTSNDTAVYYCARQYPDQYSSSGWPRLFAMDVWGQGTTVIVSP
VL: ETTLTQSPATLSVSPGETATLSCRASQNVINNLAWYQQKPGQAPRLLIYGASTRATGIPARFSGSGSGTEFTLTISSMQSEDFAVYYCQQYNDWPRSFGQGTRLDIRR
B4: 37.2G (antibody, V domains shown)
VH: EVQLVESGGGLVKPGGSRRLSCAASGFTFSRDTMTWVRQAPGKGLEWVASISSGSSDINYADSVKGRFTISRDNGKNSLYLHMNSLRADDTAIYYCARDPRSGISGRYGMDVWGQGTTVTVSS
VL: DIVLTQSPGTLSLSPGERATLSCRASQSVNSIFLAWYQQKPGQAPRLLIYGASSRATGIPDRFSGSGSGTDFTLTISRLEPEDFAVYYCQQYHSSPKLTFGGGTKVEIKR

The target in the first assay is LASV A19 (lineage II) glycoprotein (Lassa virus, strain A19). Briefly: cell-based or functional assay.
In the case of B1, the “IC50 (neutralization)” value turned out to be 1.48 µg/mL and the “IC80 (neutralization)” value was 4.59 µg/mL.

For the molecule B2, the “IC50 (neutralization)” value was determined as 0.255 µg/mL and the “IC80 (neutralization)” value worked out at 0.537 µg/mL.

Take B3: the “IC50 (neutralization)” value stood at 0.469 µg/mL and the “IC80 (neutralization)” value turned out to be 1.15 µg/mL.

Take B4: the “IC50 (neutralization)” value was 1.1 µg/mL and the “IC80 (neutralization)” value was 10 µg/mL.

The next assay addresses T1, LASV Josiah (lineage IV) glycoprotein, …. The experiment in a line: cell-based or functional assay.
As to B1, the “IC50 (neutralization)” value turned out to be 0.361 µg/mL and the “IC80 (neutralization)” value came out at 1.74 µg/mL.

For B2, the “IC50 (neutralization)” value stood at 0.191 µg/mL and the “IC80 (neutralization)” value turned out to be 0.532 µg/mL.

In the case of B3, the “IC50 (neutralization)” value is 0.559 µg/mL and the “IC80 (neutralization)” value was found to be 1.98 µg/mL.

With B4, the “IC50 (neutralization)” value was 5.6 µg/mL and the “IC80 (neutralization)” value was 16 µg/mL.

The target in another assay is LASV 237 (lineage III) glycoprotein (Lassa virus, strain 237). The experiment in a line: cell-based or functional assay.
Take B1: the “IC50 (neutralization)” value turned out to be 1.17 µg/mL and the “IC80 (neutralization)” value worked out at 3.64 µg/mL.

Take B2: the “IC50 (neutralization)” value was 0.077 µg/mL and the “IC80 (neutralization)” value was 0.202 µg/mL.

Consider B3, for which the “IC50 (neutralization)” value stood at 0.256 µg/mL and the “IC80 (neutralization)” value turned out to be 0.844 µg/mL.

As for B4, the “IC50 (neutralization)” value stood at 2.02 µg/mL and the “IC80 (neutralization)” value amounted to 5.23 µg/mL.

Another assay deals with LASV Pinneo (lineage I) glycoprotein (Lassa virus, strain Pinneo). Briefly: cell-based or functional assay.
Turning to B1, the “IC50 (neutralization)” value came to 3.25 µg/mL and the “IC80 (neutralization)” value is 10.5 µg/mL.

B2: the “IC50 (neutralization)” value was 0.301 µg/mL and the “IC80 (neutralization)” value turned out to be 1.66 µg/mL.

As to B3, the “IC50 (neutralization)” value was 0.537 µg/mL and the “IC80 (neutralization)” value amounted to 1.86 µg/mL.

As for B4, the “IC50 (neutralization)” value is more than 20 µg/mL and the “IC80 (neutralization)” value is more than 20 µg/mL.

For a further assay, the target named is T2, LCMV WE strain GP. Briefly: immunofluorescence, 293T cells transfected with GP plasmid.
Regarding B1, the binding result was “no binding”.

Another assay concerns the target T1, LASV Josiah (lineage IV) glycoprotein, …. Briefly: cell-based or functional assay. This is another data set of the same source.
Take B1: the “IC50 (neutralization)” value was more than 10 µg/mL and the “IC80 (neutralization)” value is more than 10 µg/mL.

With B2, the “IC50 (neutralization)” value turned out to be 0.134 µg/mL and the “IC80 (neutralization)” value was 0.214 µg/mL.

As to B3, the “IC50 (neutralization)” value is 0.137 µg/mL and the “IC80 (neutralization)” value was found to be 0.26 µg/mL.

Regarding B4, the “IC50 (neutralization)” value came to 0.405 µg/mL and the “IC80 (neutralization)” value came out at 1.78 µg/mL.

In a further assay the target is T2, LCMV WE strain GP. Briefly: cross-reactivity, immunofluorescence on GP-transfected 293T cells.
B2: the binding result is reported as “binds”.

In the case of B3, the binding result is “binds”.

As for B4, the binding result is given as “binds”.
